B1: POU domain, class 3, transcription factor 4, residues 280 to 335; numbered along this chain, P49335 (parent)
chain: KKRTSIEVSVKGVLETHFLKCPKPAAQEISSLADSLQLEKEVVRVWFCNRRQKEKR

Variants of: B1
Test: abundance fitness (aPCA) (normalised: wild type 0, dead -1); higher = more abundant; growth selection in yeast, the domain comes from the species named
Conditions: Homo sapiens

Abundance fitness: each site, then its substitutions
R51: G -0.804 | W -0.221 | M -0.243 | A -0.309 | C -0.506 | S -0.549 | E -0.258 | K -1.04 | Q -0.237 | D -0.839 | L -0.305 | P -0.834 | Y -0.193 | T -0.848 | N -0.628
V43: Y -0.545 | T -0.975 | M -1.22 | P -0.774 | G -0.687 | W -1.19 | S -0.852 | L -0.437 | R -0.738 | K -1.01 | Q -0.601 | F -0.567 | I -0.543
K53: Q -0.258 | S -0.318 | T -0.428 | G -0.826 | N -0.544 | Y -0.616 | E 0.194 | R -0.171 | D -0.232 | P -0.884 | C -0.428 | W -0.888 | F -0.027 | M -0.049 | A -0.066
E54: V -0.634 | Q -0.259 | C -0.897 | M -0.819 | W -0.902 | T -1.06 | A -0.788 | H -0.906 | G -0.808 | K -0.591 | L -0.787 | F -0.836 | S -0.679
R44: Q -0.074 | L -0.686 | G -0.473 | V -0.84 | A -0.193 | I -1.01 | C -0.801 | M -0.539 | S -0.343 | W -0.68 | N 0.059 | E 0.182 | P -0.865 | Y -0.643 | T -0.343
W46: R -0.927 | S -0.693 | I -0.688 | F -1.05 | M -0.932 | P -0.953 | N -0.816 | E -0.892 | Q -0.403 | K -0.673 | A -0.623 | V -0.82 | H -0.647 | G -0.639 | T -0.709
F47: G -0.745 | C -0.792 | A -0.65 | E -0.872 | H -0.571 | V -0.795 | W -0.769 | K -1.16 | P -0.996 | L -0.868 | R -0.677 | Q -0.899 | S -0.426 | M -0.897 | Y -0.534 | D -0.565
C48: D 0.023 | R 0.056 | H 0.068 | M 0.022 | V 0.058 | S 0.078 | P -0.762 | N -0.113 | I 0.155 | K 0.282 | T -0.187 | Q 0.154 | E 0.549 | A -0.051 | G -0.526 | W -0.073
V45: C -0.243 | W -0.337 | F -0.517 | S 0.097 | Q 0.156 | N 0.373 | K 0.165 | P -0.38 | A 0.085 | E 0.193 | M -0.041 | H -0.077 | L 0.052 | I -0.527 | Y -0.372 | T 0.307 | G -0.25 | R -0.062
R50: I -0.93 | Q -0.88 | M -0.692 | L -0.93 | K -0.446 | G -0.778 | W -0.999 | Y -0.559 | A -0.582 | N -0.771 | E -0.814 | T -0.693 | P -0.87 | C -0.769
Q52: T -0.351 | G -0.34 | F -0.931 | E 0.084 | L -0.055 | C -0.291 | H -0.069 | I -0.126 | D 0.231 | V -0.378 | R -0.317 | A 0.203 | Y -0.095 | W -0.685 | N 0.273 | P -0.741 | M 0.071

Reference: the Human Domainome abundance scans (Beltran et al. 2025)
